According to article PMC5560549:

Tests used:
[1] = target: human FcRn (neonatal Fc receptor), biotinylated (human) (UniProt P55899); test: SPR; Biacore 3000; biotinylated FcRn captured on streptavidin coupled to a CM5 chip; antibody 0-10 nM in HBS-EP pH 6.0 injected at 50 ul/min, 3 min association, 3 min dissociation; regeneration with HBS-EP pH 8.0; 1:1 Langmuir model
[2] = target: human FcRn (Sino Biological), biotinylated (UniProt P55899); test: SPR (Biacore 3000); conditions: pH 6.0, not stated for this buffer (the HBS-EP+ used in the PCSK9 experiments contained 150 mM NaCl), HBS-EP buffer pH 6.0. Its composition is not given. The HBS-EP+ of the PCSK9 SPR section was 10 mM HEPES, 3
[3] = target: human FcRn (Sino Biological), biotinylated (UniProt P55899); test: ELISA; conditions: 37°C (incubations), PBS (concentration not stated), PBST (PBS + 0.05% (v/v) Tween 20) adjusted to pH 6.0 or pH 7.4 for the washes. The pH of the antibody dilution buffer is

Row | Substance | Kd [1] [nM] | koff [1] [s⁻¹] | kon [1] [M⁻¹ s⁻¹] | ka [2] [M⁻¹ s⁻¹] | kd [2] [s⁻¹] | EC50 ([3]; pH 6.0) [µg/mL] | EC50 ([3]; pH 7.4) [µg/mL]
1 | F0016C, Fc variant M429L/N435S of F0016A (antibody) | 1.76 | 0.0024 | 1.36e+06 |  |  |  | 
2 | F0016A (alirocumab sequence, wild-type Fc) |  |  |  | 1.27e+06 | 0.00617 | 30.4 | 45.1
3 | F0016C (alirocumab Fc M429L/N435S) M429L;N435S |  |  |  | 1.36e+06 | 0.0024 | 1.56 | 16.5
4 | F0016A, a human IgG1 anti-PCSK9 mAb (alirocumab) (antibody) | 4.88 | 0.00617 | 1.27e+06 |  |  |  | 
5 | F0016B (alirocumab Fc T251Q/M429L) T251Q;M429L |  |  |  | 1.43e+06 | 0.00302 | 3.47 | 12.2
6 | F0016D (alirocumab Fc M253Y/S255T/T257E) M253Y;S255T;T257E |  |  |  | 1.05e+06 | 0.00201 | 1.75 | 8.87
7 | F0016B, Fc variant T251Q/M429L of F0016A (antibody) | 2.11 | 0.00302 | 1.43e+06 |  |  |  | 
8 | F0016D, Fc variant M253Y/S255T/T257E of F0016A (antibody) | 1.91 | 0.00201 | 1.05e+06 |  |  |  | 
